The record followed here is patent US20210261636A1, “NEOANTIGENS EXPRESSED IN MULTIPLE MYELOMA AND THEIR USES” (Janssen Biotech, Inc., priority 2020, published 2021).

One test concerns CD4+ T cells. Description: Exogenous autologous healthy donor restimulation assay, TNFα and IFNγ production by CD4+ T cells. Type of test: cell-based, human. Details: Frequency (TNFα+ IFNγ+ CD4 T cells): unit not given here. To be noted: donor independent, peptide pool 10 μg/mL, healthy donors; for Fold change (CD4+) vs. DMSO: maximum CD4+ T-cell response (TNFα and IFNγ); for Frequency (TNFα+ IFNγ+ CD4 T cells): maximum CD4+ T-cell response. A digest of the protocol:
(§1)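 CD1c+ DCs from healthy donor PBMCs pulsed 2 h with 15-mer overlapping neoantigen peptide pools (10 μg/mL), irradiated 50 Gy, then co-cultured 12 days with autologous CD3+ T cells plus IL-15/IL-2. Restimulated day 11 with same pools, overnight with protein inhibitor; intracellular TNFα/IFNγ by flow. Positive: ≥3-fold over DMSO and ≥0.01% double-positive.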

The next test has as its system CD8+ T cells. The test is described as follows: Exogenous autologous healthy donor restimulation assay, TNFα and IFNγ production by CD8+ T cells. Type of test: cell-based, human. Details: Frequency (TNFα+ IFNγ+ CD8 T cells): unit not given here. To be noted: for Fold change (CD8+) vs. DMSO: maximum CD8+ T-cell response (TNFα and IFNγ); for Fold change (CD8+) vs. DMSO / Frequency (TNFα+ IFNγ+ CD8 T cells): donor independent, peptide pool 10 μg/mL, healthy donors; for Frequency (TNFα+ IFNγ+ CD8 T cells): maximum CD8+ T-cell response; for Immunogenic (yes/no): positive if CD8+ and/or CD4+ double positive TNFα/IFNγ frequency >=3-fold over DMSO and at least 0.01%. A digest of the protocol:
as §1

B1: EIEGSCHGGMITMDIKMGSYSCDYLKHSETLSAMVVSCGISFLFLFPRKKIAKLIFKEQVP (peptide)
chain: EIEGSCHGGMITMDIKMGSYSCDYLKHSETLSAMVVSCGISFLFLFPRKKIAKLIFKEQVP
notes: alternative splicing, EPHA6
For the molecule B1, in the test on CD4+ T cells, the “Fold change (CD4+) vs. DMSO” value is 111.44 and the “Frequency (TNFα+ IFNγ+ CD4 T cells)” value amounted to 0.57. In the test on CD8+ T cells, the “Fold change (CD8+) vs. DMSO” value is 100, the “Frequency (TNFα+ IFNγ+ CD8 T cells)” value is recorded as 17 and the “Immunogenic (yes/no)” value is on record as “Yes”.

B2: RQREVVDLVKKDLVMRAVSLGTQRGDQNGRPSWSGHAIWARIMECAYKGQQECLVETGALGPMAFRVHLGSQVGMDSKEKRGNV (peptide)
chain: RQREVVDLVKKDLVMRAVSLGTQRGDQNGRPSWSGHAIWARIMECAYKGQQECLVETGALGPMAFRVHLGSQVGMDSKEKRGNV
notes: alternative splicing, CTHRC1
Take B2: in the test with CD4+ T cells, the “Fold change (CD4+) vs. DMSO” value worked out at 223.78 and the “Frequency (TNFα+ IFNγ+ CD4 T cells)” value worked out at 0.16. Further, in the test with CD8+ T cells, the “Fold change (CD8+) vs. DMSO” value was determined as 288.14, the “Frequency (TNFα+ IFNγ+ CD8 T cells)” value was 0.51 and the “Immunogenic (yes/no)” value was “Yes”.

B3: SLLIGALRITWKREAGRKSFFKCGLRVHMWKGLQFIEITRRNWMLIFQSCSLFGTSQYRSLTKKCQLCFRFKRVSSKGSDITDKREVTH (peptide)
chain: SLLIGALRITWKREAGRKSFFKCGLRVHMWKGLQFIEITRRNWMLIFQSCSLFGTSQYRSLTKKCQLCFRFKRVSSKGSDITDKREVTH
notes: alternative splicing, ARHGAP42
Turning to B3, in the test on CD4+ T cells, the “Fold change (CD4+) vs. DMSO” value came to 15.34 and the “Frequency (TNFα+ IFNγ+ CD4 T cells)” value was 0.1. In addition, in the test with CD8+ T cells, the “Fold change (CD8+) vs. DMSO” value worked out at 1100, the “Frequency (TNFα+ IFNγ+ CD8 T cells)” value turned out to be 0.29 and the “Immunogenic (yes/no)” value is “Yes”.

B4: VYPVYQPVVSQAGLGELWQWASGKLRGYCWRRGQWHAYSIQCDPHPVFGEGACDCSETEAHGGCQSPRLESFPGQPPGFRGQRF (peptide)
chain: VYPVYQPVVSQAGLGELWQWASGKLRGYCWRRGQWHAYSIQCDPHPVFGEGACDCSETEAHGGCQSPRLESFPGQPPGFRGQRF
notes: gene fusion NDUFB8-> SEC31B
On to B4, for which, in the test on CD4+ T cells, the “Fold change (CD4+) vs. DMSO” value amounted to 1.94 and the “Frequency (TNFα+ IFNγ+ CD4 T cells)” value came out at 0.011. In the test with CD8+ T cells, the “Fold change (CD8+) vs. DMSO” value was 42.81, the “Frequency (TNFα+ IFNγ+ CD8 T cells)” value is listed as 0.064 and the “Immunogenic (yes/no)” value is “Yes”.

B5: GWKICREGIGPVMLTMTSGEWSFSFLEAICGVSREPVPRRRHCIWDTRGGVGLCEASCWRPTSEVG (peptide)
chain: GWKICREGIGPVMLTMTSGEWSFSFLEAICGVSREPVPRRRHCIWDTRGGVGLCEASCWRPTSEVG
notes: alternative splicing, STARD5
For the molecule B5, in the test with CD4+ T cells, the “Fold change (CD4+) vs. DMSO” value is 44.35 and the “Frequency (TNFα+ IFNγ+ CD4 T cells)” value was determined as 0.081. Besides, in the test on CD8+ T cells, the “Fold change (CD8+) vs. DMSO” value stood at 874.02, the “Frequency (TNFα+ IFNγ+ CD8 T cells)” value came out at 7.77 and the “Immunogenic (yes/no)” value was “Yes”.

B6: YESPIFSRDRVNPGALSGSLGQARAACWRTLGSLKPGGEFRAAEQRRAGWVPGAPGFTCSLISSRFPRERFCLRHRSSWRGARRVQCVCPGQTEGLWL (peptide)
chain: YESPIFSRDRVNPGALSGSLGQARAACWRTLGSLKPGGEFRAAEQRRAGWVPGAPGFTCSLISSRFPRERFCLRHRSSWRGARRVQCVCPGQTEGLWL
notes: alternative splicing, WNT10A
For B6, in the test on CD4+ T cells, the “Fold change (CD4+) vs. DMSO” value is on record as 12.303 and the “Frequency (TNFα+ IFNγ+ CD4 T cells)” value amounted to 0.071. In addition, in the test with CD8+ T cells, the “Fold change (CD8+) vs. DMSO” value is 38.74, the “Frequency (TNFα+ IFNγ+ CD8 T cells)” value was 0.095 and the “Immunogenic (yes/no)” value is “Yes”.

B7: MSATTGSQDNPEGKRDPSRKFQEQKALPKRPPLQKNLRNGVGQHYPATLTSRTRNSIKMRHSRTTRARRPPPSPVLPWAASNSQARPETSSLSEKSPEV (peptide)
chain: MSATTGSQDNPEGKRDPSRKFQEQKALPKRPPLQKNLRNGVGQHYPATLTSRTRNSIKMRHSRTTRARRPPPSPVLPWAASNSQARPETSSLSEKSPEV
notes: alternative splicing, CSAG1
In the case of B7, in the test with CD4+ T cells, the “Fold change (CD4+) vs. DMSO” value was 79.18 and the “Frequency (TNFα+ IFNγ+ CD4 T cells)” value came out at 0.12. In the test on CD8+ T cells, the “Fold change (CD8+) vs. DMSO” value is 6327.68, the “Frequency (TNFα+ IFNγ+ CD8 T cells)” value was determined as 11.2 and the “Immunogenic (yes/no)” value is on record as “Yes”.
